Molecular target: IMI4C4a antibody (monoclonal antibody produced from Mouse-Mouse hybridoma IMI4C4a)
Assay: competitive inhibition ELISA, peptide preincubated with IMI4C4a (333 pM), immobilized ICD4

Sequence of IMI4C4a antibody (monoclonal antibody produced from Mouse-Mouse hybridoma IMI4C4a) (VH, as listed by the source, chain 1 of 2): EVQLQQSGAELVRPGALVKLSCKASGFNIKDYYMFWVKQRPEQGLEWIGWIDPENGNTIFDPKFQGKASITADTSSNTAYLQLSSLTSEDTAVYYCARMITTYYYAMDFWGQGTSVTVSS
Sequence of IMI4C4a antibody (monoclonal antibody produced from Mouse-Mouse hybridoma IMI4C4a) (V domain, as listed by the source, chain 2 of 2): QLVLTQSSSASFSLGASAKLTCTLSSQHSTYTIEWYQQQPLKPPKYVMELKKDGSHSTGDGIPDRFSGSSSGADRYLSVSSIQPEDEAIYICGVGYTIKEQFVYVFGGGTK

Binder	molar ratio to the antibody at which an inhibitory effect started	molar ratio to the antibody giving significant inhibition	molar ratio to the antibody without inhibition
TQKAGLPSKNLTVSQNQ [ICD4_242-258 (chemically synthesized peptide)]	50 fold molar ratio relative to the antibody concentration	≥ 500 fold molar ratio relative to the antibody concentration	
THCHETEESTIKDSTT [ICD4_227-242 (chemically synthesized peptide)]			> 10000 fold molar ratio relative to the antibody concentration
STIKDSTTQKAGLPSK [ICD4_235-250 (chemically synthesized peptide)]			> 10000 fold molar ratio relative to the antibody concentration

From patent publication US20170313770A1 (ORDER MADE MEDICAL RESEARCH, published 2017)
